According to publication PMC4218801:

Target: T1, Crp (Mycobacterium smegmatis mc2155) (UniProt A0R5H1)
T1 sequence: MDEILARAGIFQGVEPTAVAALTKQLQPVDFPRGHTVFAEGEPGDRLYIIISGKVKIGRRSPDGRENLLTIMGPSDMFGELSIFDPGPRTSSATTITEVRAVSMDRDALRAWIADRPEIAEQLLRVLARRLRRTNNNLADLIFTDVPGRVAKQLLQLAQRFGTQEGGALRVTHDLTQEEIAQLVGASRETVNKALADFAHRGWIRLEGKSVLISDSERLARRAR
Assay: EMSA
Settings: Invitrogen EMSA kit binding buffer, 100 fmol (9.3 ng) DNA, 100 uM cAMP, 20 min at room temperature; 8% native PAGE in 0.5x TBE pH 8.3 at 4 C, SYBR green stain

Sequence: GGCAGACCGCATCCGCGGCGCGTTCGGTCGCCGCGTCCCGCGCGCGGGAGATCCGTGCGTTTCGGGATGTGATGCCCGTCGCACGACGTGAGCGGCGGTGTGGAGAATCACGGCTCAGCAAAGTTGCATTTGTAAGAGGGCGCGACCAGA (double strand) [ahpC 150-bp wild-type IR1]
- binding: binds
